Experimental findings from patent US20220242943A1 (Regeneron, published 2022) are described below.

Read-outs that look alike come from different tables or passages of the source.

Sequences and labels used below:
B1: Sino Biologics cynomolgus PDGF-BB Fc tag (Fc fusion, cynomolgus monkey, not shown: a dimerising Fc or GST)
chain: SLGSLTVAEPAMIAECKTRTEVFEISRRLIDRTNANFLVWPPCVEVQRCSGCCNNRNVQCRPTQVQLRPVQVRKIEIVRKKPIFKKATVTLEDHLACKCETVAAARPVT
B2: cynomolgus monkey (Macaca fascicularis) PDGF-BB (ligand)
chain: SLGSLTVAEPAMIAECKTRTEVFEISRRLIDRTNANFLVWPPCVEVQRCSGCCNNRNVQCRPTQVQLRPVQVRKIEIVRKKPIFKKATVTLEDHLACKCETVAAARPVT
B3: mouse PDGF-BB (ligand, UniProt P31240 82-190, looked up)
chain: SLGSLAAAEPAVIAECKTRTEVFQISRNLIDRTNANFLVWPPCVEVQRCSGCCNNRNVQCRASQVQMRPVQVRKIEIVRKKPIFKKATVTLEDHLACKCETIVTPRPVT

In experiment [1] the target is mfPDGFRβ-ecto/hPDGFRb-cyto (monkey (mf); human, UniProt P09619 554-1106). Kind of experiment: cell-based or functional assay.
Experiment [2] has as its target T1, human PDGFRβ on HEK293/SRE-luc/hPDGFRβ cells (human, UniProt P09619 33-1106). Kind of experiment: cell-based or functional assay.
Experiment [3] deals with T1, human PDGFRβ on HEK293/SRE-luc/hPDGFRβ …. Kind of experiment: cell-based or functional assay. This is another data set of the same source.
Another experiment concerns the target T2, rat PDGF-BB (rat, UniProt Q05028 74-182).
T2 construct: also called rPDGF-BB
Kind of experiment: SPR (Biacore T200 or MASS-2), mAb captured by anti-human Fc, 25 C. As for the experimental part: (§1) All binding studies were performed in 10 mM HEPES, 300 mM NaCl, and 0.05% v/v Surfactant Tween-20, pH 7.4 (HBS-P) running buffer at 25° C.
(§2) The association rate (kₐ) and dissociation rate (kd) were determined by fitting the real-time binding sensorgrams to a 1:1 binding model with mass transport limitation using Scrubber 2.0c curve-fitting software. Binding dissociation equilibrium constant (KD) and dissociative half-life (t½) were calculated from the kinetic rates as: […]

The target of experiment [4] is B2. The description is as above. As to the method:
as §1, §2

The target of experiment [5] is B3. Kind of experiment: cell-based or functional assay.
For experiment [6], the target named is B2. Kind of experiment: cell-based or functional assay.
The target of experiment [7] is T3, human PDGF-AB (human, UniProt P04085 87-211). In words: cell-based or functional assay.
Experiment [8] deals with B3. Kind of experiment: SPR, 37 C (listed in PK study table).
The target in experiment [9] is B2. In words: SPR (Bia-core), 37 C as headed; 37 C as headed.
The target of experiment [10] is T3, human PDGF-AB. In words: cell-based or functional assay. This is another data set of the same source.
Experiment [11] deals with B3. Kind of experiment: SPR, captured mAb, 25 C. As to the method:
(§3) The equilibrium dissociation constants (KD values) for human and mouse PDGF-B binding to purified anti-PDGF-B monoclonal antibodies of this disclosure were determined using a real-time surface plasmon resonance (SPR) biosensor instrument, MASS-1. All binding studies were performed in 10 mM HEPES, 300 mM NaCl, 3 mM EDTA, 1 μg/mL Heparin, and 0.05% v/v Surfactant Tween-20, pH 7.4 (HBS-T) running buffer at 25° C. and 37° C. […] The HCA sensor surface was first derivatized by amine coupling the monoclonal mouse anti-human Fc antibody (GE, #BR100839) and anti-PDGF-B monoclonal antibodies were individually captured. […] Kinetic association (kₐ) and dissociation (kd) rate constants were determined by fitting the real-time binding sensorgrams to a 1:1 binding model with mass transport limitation using Scrubber 2.0c software. Binding dissociation equilibrium constant (KD) and dissociative half-life (t½) for different anti-PDGF-B monoclonal antibodies were calculated from the kinetic rate constants as: […]

In experiment [12] the target is B3. Kind of experiment: SPR (Bia-core), 37 C as headed.
In experiment [13] the target is B2. In words: SPR (Bia-core), 37 C as headed.
The target of experiment [14] is B3. Kind of experiment: SPR, captured mAb, 37 C. As to the method:
as §3

The target in experiment [15] is B1. Kind of experiment: SPR 25C, mAb captured on anti-hFc; analyte Monkey PDGF-BB Fc homodimer-mouse Fc (IgG1) tag (Sino Biological). As for the experimental part: The sample was injected at 25 uL/minute for 3 minutes and the dissociation was monitored for 10 minutes. The kinetics parameters were evaluated by fitting the real time data using 1:1 binding model with mass transport limitation.

In experiment [16] the target is T4, mouse PDGF-BB (mouse, UniProt P31240 82-190, limits assumed).
T4 construct: also called mPDGF-BB; mPDGF-B
Kind of experiment: SPR MASS-1, captured mAb, 37C. As for the experimental part: as §3

Experiment [17] deals with B2. In words: SPR (Bia-core), 37 C as headed; 37 C as headed. This is another data set of the same source.
In experiment [18] the target is B2. In words: cell-based or functional assay. This is another data set of the same source.
Experiment [19] addresses T3, human PDGF-AB. In words: cell-based or functional assay. The source holds these as a separate data set.
Experiment [20] concerns the target B3. In words: SPR (Bia-core), 37 C as headed. The source holds these as a separate data set.
Experiment [21] concerns the target B2. In words: SPR (Bia-core), 37 C as headed. The source holds these as a separate data set.
Experiment [22] addresses T5, human PDGF-AB (human, UniProt P04085 87-211).
T5 construct: also called hPDGF-AB; hPDGF AB
In words: blocking ELISA: 100 pM Biot-PDGF-AB on 1 ug/ml hPDGFRb-mmH.

Experiment [23] concerns the target Cynomolgus monkey PDGF-BB (cynomolgus monkey (Macaca fascicularis), UniProt A0A2K5UX81 82-190). In words: cell-based or functional assay.

T1 sequence (P09619 33-1106): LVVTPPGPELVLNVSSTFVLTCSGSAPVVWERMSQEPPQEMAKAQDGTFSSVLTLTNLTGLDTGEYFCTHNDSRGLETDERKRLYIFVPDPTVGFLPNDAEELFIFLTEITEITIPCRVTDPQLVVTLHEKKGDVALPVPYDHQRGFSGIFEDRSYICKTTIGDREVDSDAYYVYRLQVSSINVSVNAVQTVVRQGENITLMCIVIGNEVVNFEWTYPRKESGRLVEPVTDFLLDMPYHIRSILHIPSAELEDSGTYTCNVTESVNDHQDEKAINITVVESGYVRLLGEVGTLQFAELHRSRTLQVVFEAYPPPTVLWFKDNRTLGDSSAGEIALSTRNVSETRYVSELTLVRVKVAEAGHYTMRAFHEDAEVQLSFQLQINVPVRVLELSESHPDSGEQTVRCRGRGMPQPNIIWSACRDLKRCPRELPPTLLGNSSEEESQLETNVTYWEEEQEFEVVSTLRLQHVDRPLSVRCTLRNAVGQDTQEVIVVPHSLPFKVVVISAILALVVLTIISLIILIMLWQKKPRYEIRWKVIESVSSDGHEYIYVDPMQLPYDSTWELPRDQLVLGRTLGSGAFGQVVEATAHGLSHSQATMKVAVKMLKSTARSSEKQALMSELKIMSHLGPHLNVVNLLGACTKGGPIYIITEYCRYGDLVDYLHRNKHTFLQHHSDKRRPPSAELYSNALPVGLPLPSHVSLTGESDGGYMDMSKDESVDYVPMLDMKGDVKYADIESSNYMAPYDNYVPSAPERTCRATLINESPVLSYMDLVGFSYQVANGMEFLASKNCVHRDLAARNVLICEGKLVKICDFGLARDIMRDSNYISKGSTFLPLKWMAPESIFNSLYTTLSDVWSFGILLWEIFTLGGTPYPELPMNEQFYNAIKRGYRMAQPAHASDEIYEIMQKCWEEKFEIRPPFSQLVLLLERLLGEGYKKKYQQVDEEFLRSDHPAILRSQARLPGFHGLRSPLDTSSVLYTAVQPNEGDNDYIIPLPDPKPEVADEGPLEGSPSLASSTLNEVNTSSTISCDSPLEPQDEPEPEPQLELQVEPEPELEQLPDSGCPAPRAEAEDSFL
Chain of mfPDGFRβ-ecto/hPDGFRb-cyto (P09619 554-1106): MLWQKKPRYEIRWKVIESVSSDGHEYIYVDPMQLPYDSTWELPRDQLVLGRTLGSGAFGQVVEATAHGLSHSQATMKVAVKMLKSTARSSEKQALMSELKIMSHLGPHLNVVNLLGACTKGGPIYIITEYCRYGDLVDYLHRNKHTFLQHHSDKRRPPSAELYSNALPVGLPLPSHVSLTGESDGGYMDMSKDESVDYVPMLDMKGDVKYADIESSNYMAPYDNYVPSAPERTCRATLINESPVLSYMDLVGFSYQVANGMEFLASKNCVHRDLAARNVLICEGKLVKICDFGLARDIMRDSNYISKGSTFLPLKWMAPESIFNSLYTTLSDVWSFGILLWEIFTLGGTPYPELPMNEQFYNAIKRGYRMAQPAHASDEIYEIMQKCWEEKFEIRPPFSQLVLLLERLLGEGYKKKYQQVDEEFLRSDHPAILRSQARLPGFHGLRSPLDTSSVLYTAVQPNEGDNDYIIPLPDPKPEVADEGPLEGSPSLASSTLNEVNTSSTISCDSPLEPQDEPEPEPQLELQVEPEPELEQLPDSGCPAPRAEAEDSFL

With B1, the “EC50, luciferase in HEK293/SRE-Luc/mfPDGFRβ-ecto/hPDGFRb-cyto cells” value in [1] came to 167 pM.
Regarding B2, the “EC50 of ligand, SRE-luciferase in HEK293/SRE-luc/hPDGFRβ cells” value in experiment [2] and in experiment [3] was 64 pM in each case.
For B3, the “EC50 of ligand, SRE-luciferase in HEK293/SRE-luc/hPDGFRβ cells” value in [2] and in [3] was 930 pM in each case.

B4: H4H13145P (antibody, human IgG4 S228P, kappa, V domains shown)
VH: QVQLVQSGTEVKKPGASVKVSCKASGYTYGAYAISWVRQAPGQGLEWMGWISAYNGNTNYAQKFQDRVTMTTDTSTNTAYMELRGLKSDDTAVYFCARAWNSFDYWGQGTLVTVSS
VL: not shown
notes: also called REGN13335; anti-PDGF-B antibody 1
Turning to B4, the Kd was 125 pM in the experiment with rat PDGF-BB; 16.1 pM in experiment [4]; 0.954 pM with mouse PDGF-BB [8]; 16.1 pM in experiment [9]; at most 2.3 pM with mouse PDGF-BB [11]; 0.954 pM with mouse PDGF-BB [12]. This molecule also had a dissociation constant Kd with mouse PDGF-BB [14] of 0.954 pM. Moreover, the figures for the t½ (with rat PDGF-BB; in experiment [4]) were 0.682 h and 12.8 h, respectively. Further, the “IC50, SRE-luciferase, 600 pM mPDGFBB” value with mouse PDGF-BB [5] stood at 4.5e-10 M. Moreover, the “IC50 (head printed IC51), SRE-luciferase, 500 pM mfPDGFBB” value in experiment [6] came out at 3.2e-10 M. Besides, the “A647 Intensity, internalization in PASMC, pre-blocking Ab: NA” value with human PDGF-AB [7] is 2.4e+07. Besides, in the experiment with human PDGF-AB [10], the “A647 Intensity, internalization in NHLF, pre-blocking Ab: NA” value is 1.9e+07. In experiment [13], the t1/2 stood at 12.8 h.

B5: H4H13145P (antibody, human IgG4 S228P, kappa, V domains shown)
VH: QVQLVQSGTEVKKPGASVKVSCKASGYTYGAYAISWVRQAPGQGLEWMGWISAYNGNTNYAQKFQDRVTMTTDTSTNTAYMELRGLKSDDTAVYFCARAWNSFDYWGQGTLVTVSS
VL: not shown
notes: also called REGN13335
For B5, in experiment [15], the affinity, expressed as Kd, was 26.8 pM and the “t½” value worked out at 17.8 h. The same molecule displayed a dissociation constant (Kd) with mouse PDGF-BB [16] of 0.954 pM.

B6: H4H13132P (antibody, human IgG4 S228P, kappa, V domains shown)
VH: QVQLVQSGAEVKKPGSSVKVSCKASGGTFSSYAISWVRQAPGQGLEWMGGIIPIFGTANYAQKFQGRVTITTDESTSTAYMELSSLRSEDTAVYYCAREGYGDYYFGMDVWGQGTTVTVSS
VL: not shown
notes: also called REGN15171; anti-PDGF-B antibody 2
For B6, the Kd turned out to be 9.67 pM in experiment [17]; 103 pM with rat PDGF-BB; 9.67 pM in experiment [4]; 86.7 pM with mouse PDGF-BB [8]; 86.7 pM with mouse PDGF-BB [20]; 86.7 pM with mouse PDGF-BB [14]. In addition, the t½ was determined as 0.683 h with rat PDGF-BB and 4.62 h in [4]. Also, the “A647 Intensity, internalization in PASMC, pre-blocking Ab: NA” value in the experiment with human PDGF-AB [7] was 772000. Also, in experiment [18], the “IC50 (head printed IC51), SRE-luciferase, 500 pM mfPDGFBB” value came to 8.9e-09 M. Besides, the “(%) Inhibition, calcium flux in HLF cells, 1 nM ligand, Full Time Course” value with human PDGF-AB [19] came out at 63%. The “A647 Intensity, internalization in NHLF, pre-blocking Ab: NA” value with human PDGF-AB [10] came to 679000. For the same molecule, the t1/2 in experiment [21] was 4.62 h.

B7: H4H13132P (antibody, human IgG4 S228P, kappa, V domains shown)
VH: QVQLVQSGAEVKKPGSSVKVSCKASGGTFSSYAISWVRQAPGQGLEWMGGIIPIFGTANYAQKFQGRVTITTDESTSTAYMELSSLRSEDTAVYYCAREGYGDYYFGMDVWGQGTTVTVSS
VL: not shown
notes: also called REGN15171
As to B7, the equilibrium dissociation constant (Kd) in experiment [15] is 25.6 pM; in the experiment with mouse PDGF-BB [16], 86.7 pM. Further, in [15], the “t½” value worked out at 18.4 h. Besides, 14000 pM corresponded to half-maximal inhibition with human PDGF-AB [22] (IC50). In addition, the “IC50, luciferase in HEK293/SRE-Luc/mfPDGFRβ-ecto/hPDGFRb-cyto cells” value in [23] was 781 pM.
